What was measured:
Experiment in all cases: fluorescence polarisation
[1] = target: BAX (recombinant, tagless, full-length) (human) (UniProt Q07812)
[2] = target: BCL-XLΔC
[3] = target: BAKΔC
[4] = target: MCL-1ΔNΔC (residues 172–327) (UniProt Q07820)
[5] = target: BFL-1/A1ΔC

Sequence of MCL-1ΔNΔC (residues 172–327) (Q07820 172-327, stated change not applied): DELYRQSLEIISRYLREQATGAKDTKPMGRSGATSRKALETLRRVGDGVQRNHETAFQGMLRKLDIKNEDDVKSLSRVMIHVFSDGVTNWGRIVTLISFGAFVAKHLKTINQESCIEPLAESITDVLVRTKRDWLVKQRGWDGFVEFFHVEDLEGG
Sequence of BAX (recombinant, tagless, full-length) (human) (Q07812 whole entry): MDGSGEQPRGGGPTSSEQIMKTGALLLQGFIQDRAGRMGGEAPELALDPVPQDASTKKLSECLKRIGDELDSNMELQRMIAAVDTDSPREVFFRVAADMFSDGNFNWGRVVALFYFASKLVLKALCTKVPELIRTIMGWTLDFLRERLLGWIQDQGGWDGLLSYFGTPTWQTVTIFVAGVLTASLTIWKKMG
Sequence of BCL-XLΔC (Q07817 1-209, stated change not applied): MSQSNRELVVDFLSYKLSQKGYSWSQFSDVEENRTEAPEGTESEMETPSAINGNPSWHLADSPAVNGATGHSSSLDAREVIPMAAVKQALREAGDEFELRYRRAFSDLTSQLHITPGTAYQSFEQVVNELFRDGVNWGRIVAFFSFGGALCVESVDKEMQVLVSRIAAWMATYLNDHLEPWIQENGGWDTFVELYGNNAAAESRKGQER

Question: How did the IC50 [1] turn out when “N-terminally acetylated BIM SAHB (peptide)” was run?
Answer: Its IC50 is 314 nM.

Question: What about the IC50 [2] of the same substance?
Answer: Its IC50 is 572 nM.

Question: And the IC50 [3]?
Answer: The IC50 was 827 nM.

Question: What about the IC50 [4] of the same substance?
Answer: Its IC50 is 136 nM.

Question: “FITC-BIM SAHB (fluoresceinated stabilized α-helix of BCL-2 domain modeled after BIM BH3) (peptide)” was tested. Which EC50 [1] did it give?
Answer: Its EC50 is 283 nM.

Question: And the EC50 [3]?
Answer: The EC50 was 173 nM.

Question: And the EC50 [4]?
Answer: Its EC50 is 19.8 nM.

Question: Which IC50 [5] does the source give for “N-terminally acetylated BIM SAHB (peptide; other documents disagree on this pair)” here?
Answer: The IC50 was 603 nM.

From PMC3617124
